Experimental data from the supplement of paper PMC11246515.
± gives the standard deviation of the averaged measurements.

Experiment: total protein half-life in vivo (active degradation + dilution); higher = more stable protein
[1] = wild type E. coli NCM3722, growth: P-lim chemostat, doubling time 6 h
[2] = E. coli NCM3722 delta-clpP delta-lon delta-hslV, growth: N-lim chemostat, doubling time 6 h
[3] = E. coli NCM3722 delta-clpP, growth: N-lim chemostat, doubling time 6 h
[4] = E. coli NCM3722 delta-hslV, growth: N-lim chemostat, doubling time 6 h
[5] = E. coli NCM3722 delta-lon, growth: N-lim chemostat, doubling time 6 h
[6] = E. coli NCM3722 delta-smpB, growth: N-lim chemostat, doubling time 6 h
[7] = wild type E. coli NCM3722, growth: C-lim chemostat, doubling time 3 h
[8] = wild type E. coli NCM3722, growth: C-lim chemostat, doubling time 6 h
[9] = wild type E. coli NCM3722, growth: C-lim chemostat, doubling time 12 h
[10] = wild type E. coli NCM3722, growth: N-lim chemostat, doubling time 6 h
[11] = wild type E. coli NCM3722, growth: N-lim chemostat, doubling time 12 h
[12] = wild type E. coli NCM3722, growth: P-lim chemostat, doubling time 12 h

Sequence	total protein half-life in vivo [1] [h]	total protein half-life in vivo [2] [h]	total protein half-life in vivo [3] [h]	total protein half-life in vivo [4] [h]	total protein half-life in vivo [5] [h]	total protein half-life in vivo [6] [h]	total protein half-life in vivo [7] [h]	total protein half-life in vivo [8] [h]	total protein half-life in vivo [9] [h]	total protein half-life in vivo [10] [h]	total protein half-life in vivo [11] [h]	total protein half-life in vivo [12] [h]
MLRHITFTVFITTSMNTLATGMVPETSVLLVDEKRGEASINIKNTDDHPSLLYTTIVDLPESNKSIRLIPTQPVIRVEAGQVQQVRFLLQATVPLQSEELKRVTFEGIPPKDDKSSRVTVSIRQDLPVLIHPASLPEERETWKFLEWRKNGDQIEISNPSNYVVRMTLQFKTLPSGKTGAINKTYFLPHTSTTTALTNATDTKVEFYPASRYGYRGNKYVTDLK	4.81											
MLRIAKEALTFDDVLLVPAHSTVLPNTADLSTQLTKTIRLNIPMLSAAMDTVTEARLAIALAQEGGIGFIHKNMSIERQAEEVRRVKKHESGVVTDPQTVLPTTTLREVKELTERNGFAGYPVVTEENELVGIITGRDVRFVTDLNQPVSVYMTPKERLVTVREGEAREVVLAKMHEKRVEKALVVDDEFHLIGMITVKDFQKAERKPNACKDEQGRLRVGAAVGAGAGNEERVDALVAAGVDVLLIDSSHGHSEGVLQRIRETRAKYPDLQIIGGNVATAAGARALAEAGCSAVKVGIGPGSICTTRIVTGVGVPQITAVADAVEALEGTGIPVIADGGIRFSGDIAKAIAAGASAVMVGSMLAGTEESPGEIELYQGRSYKSYRGMGSLGAMSKGSSDRYFQSDNAADKLVPEGIEGRVAYKGRLKEIIHQQMGGLRSCMGLTGCGTIDELRTKAEFVRISGAGIQESHVHDVTITKESPNYRLGS [P0ADG7]	6.02 ± 0.29	5.001 ± 0.0064	3.78 ± 0.047	4.06 ± 0.047	4.91 ± 0.38	3.95 ± 0.36	3.01 ± 0.44	5.76 ± 0.073	11.2 ± 1.9	4.29 ± 0.39	6.68 ± 0.18	12.5 ± 0.63
MLSAFQLENNRLTRLEVEESQPLVNAVWIDLVEPDDDERLRVQSELGQSLATRPELEDIEASARFFEDDDGLHIHSFFFFEDAEDHAGNSTVAFTIRDGRLFTLRERELPAFRLYRMRARSQSMVDGNAYELLLDLFETKIEQLADEIENIYSDLEQLSRVIMEGHQGDEYDEALSTLAELEDIGWKVRLCLMDTQRALNFLVRKARLPGGQLEQAREILRDIESLLPHNESLFQKVNFLMQAAMGFINIEQNRIIKIFSVVSVVFLPPTLVASSYGMNFEFMPELKWSFGYPGAIIFMILAGLAPYLYFKRKNWL [P0ABI4]	5.62 ± 0.18	5.99 ± 0.074	6.305 ± 0.044	5.99 ± 0.58		6.4 ± 0.16	3 ± 0.35	6.15 ± 0.071	11.8 ± 0.14	6.07 ± 0.69	11.7 ± 2	12.6 ± 0.23
MLSFLWDLASFIVALGVLITVHEFGHFWVARRCGVRVERFSIGFGKALWRRTDKLGTEYVIALIPLGGYVKMLDERAEPVVPELRHHAFNNKSVGQRAAIIAAGPVANFIFAIFAYWLVFIIGVPGVRPVVGEIAANSIAAEAQIAPGTELKAVDGIETPDWDAVRLQLVDKIGDESTTITVAPFGSDQRRDVKLDLRHWAFEPDKEDPVSSLGIRPRGPQIEPVLENVQPNSAASKAGLQAGDRIVKVDGQPLTQWVTFVMLVRDNPGKSLALEIERQGSPLSLTLIPESKPGNGKAIGFVGIEPKVIPLPDEYKVVRQYGPFNAIVEATDKTWQLMKLTVSMLGKLITGDVKLNNLSGPISIAKGAGMTAELGVVYYLPFLALISVNLGIINLFPLPVLDGGHLLFLAIEKIKGGPVSERVQDFCYRIGSILLVLLMGLALFNDFSRL [P0AEH1]	4.17 ± 0.6	5.38 ± 0.54	4.76 ± 0.25	4.25 ± 0.049	5.088 ± 0.044	4.624 ± 0.034	2.69 ± 0.22	4.23 ± 0.79	7.59 ± 0.17	4.2 ± 0.15	7.28 ± 0.63	6.21 ± 0.8
MLSGKDLGRAIEQAINKKIASGSVKSKAEVARHFKVQPPSIYDWIKKGSISKDKLPELWRFFSDVVGPEHWGLNEYPIPTPTNSDTKSELLDINNLYQAASDEIRAIVAFLLSGNATEPDWVDHDVRAYIAAMEMKVGKYLKALESERKSQNITKTGT	5.35		4.75	5.53 ± 0.81	7.1	5.32		5.48	9.89	4.71	8.69	10.4 ± 2
MLSIFKPAPHKARLPAAEIDPTYRRLRWQIFLGIFFGYAAYYLVRKNFALAMPYLVEQGFSRGDLGFALSGISIAYGFSKFIMGSVSDRSNPRVFLPAGLILAAAVMLFMGFVPWATSSIAVMFVLLFLCGWFQGMGWPPCGRTMVHWWSQKERGGIVSVWNCAHNVGGGIPPLLFLLGMAWFNDWHAALYMPAFCAILVALFAFAMMRDTPQSCGLPPIEEYKNDYPDDYNEKAEQELTAKQIFMQYVLPNKLLWYIAIANVFVYLLRYGILDWSPTYLKEVKHFALDKSSWAYFLYEYAGIPGTLLCGWMSDKVFRGNRGATGVFFMTLVTIATIVYWMNPAGNPTVDMICMIVIGFLIYGPVMLIGLHALELAPKKAAGTAAGFTGLFGYLGGSVAASAIVGYTVDFFGWDGGFMVMIGGSILAVILLIVVMIGEKRRHEQLLQERNGG								6.02 ± 0.41	11.8 ± 1.2			
MLSLYEKIKIRLIILFLLAALSFIGLFFIINYQLVSERAVKRADSRFELIQKNVGYFFKDIERSALTLKDSLYLLKNTEEIQRAVILKMEMMPFLDSVGLVLDDNKYYLFSRRANDKIVVYHQEQVNGPLVDESGRVIFADFNPSKRPWSVASDDSNNSWNPAYNCFDRPGKKCISFTLHINGKDHDLLAVDKIHVDLNWRYLNEYLDQISANDEVLFLKQGHEIIAKNQLAREKLIIYNSEGNYNIIDSVDTEYIEKTSAVPNNALFEIYFYYPGGNLLNASDKLFYLPFAFIIIVLLVVYLMTTRVFRRQFSEMTELVNTLAFLPDSTDQIEALKIREGDAKEIISIKNSIAEMKDAEIERSNKLLSLISYDQESGFIKNMAIIESNNNQYLAVGIIKLCGLEAVEAVFGVDERNKIVRKLCQRIAEKYAQCCDIVTFNADLYLLLCRENVQTFTRKIAMVNDFDSSFGYRNLRIHKSAICEPLQGENAWSYAEKLKLAISSIRDHMFSEFIFCDDAKLNEIEENIWIARNIRHAMEIGELFLVYQPIVDINTRAILGAEALCRWVSAERGIISPLKFITIAEDIGFINELGYQIIKTAMGEFRHFSQRASLKDDFLLHINVSPWQLNEPHFHERFTTIMKENGLKANSLCVEITETVIERINEHFYLNIEQLRKQGVRISIDDFGTGLSNLKRFYEINPDSIKVDSQFTGDIFGTAGKIVRIIFDLARYNRIPVIAEGVESEDVARELIKLGCVQAQGYLYQKPMPFSAWDKSGKLVKE	6.03 ± 0.13	5.7 ± 1.7	7.04 ± 0.45		6.67 ± 0.23	6.334 ± 0.039	3 ± 0.23	5.9 ± 0.19		5.88 ± 0.38	12.8 ± 1.2	11.8 ± 1
MLSNDILRSVRYILKANNNDLVRILALGNVEATAEQIAVWLRKEDEEGFQRCPDIVLSSFLNGLIYEKRGKDESAPALEPERRINNNIVLKKLRIAFSLKTDDILAILTEQQFRVSMPEITAMMRAPDHKNFRECGDQFLRYFLRGLAARQHVKKG	4.99 ± 0.15	5.25 ± 0.12			6.64 ± 0.089	5.21 ± 0.48	3.21 ± 0.69	6.3 ± 0.61	11.7 ± 1	5.08 ± 0.49	8.7 ± 0.92	
MLSTQFNRDNQYQAITKPSLLAGCIALALLPSAAFAAPATEETVIVEGSATAPDDGENDYSVTSTSAGTKMQMTQRDIPQSVTIVSQQRMEDQQLQTLGEVMENTLGISKSQADSDRALYYSRGFQIDNYMVDGIPTYFESRWNLGDALSDMALFERVEVVRGATGLMTGTGNPSAAINMVRKHATSREFKGDVSAEYGSWNKERYVADLQSPLTEDGKIRARIVGGYQNNDSWLDRYNSEKTFFSGIVDADLGDLTTLSAGYEYQRIDVNSPTWGGLPRWNTDGSSNSYDRARSTAPDWAYNDKEINKVFMTLKQQFADTWQATLNATHSEVEFDSKMMYVDAYVNKADGMLVGPYSNYGPGFDYVGGTGWNSGKRKVDALDLFADGSYELFGRQHNLMFGGSYSKQNNRYFSSWANIFPDEIGSFYNFNGNFPQTDWSPQSLAQDDTTHMKSLYAATRVTLADPLHLILGARYTNWRVDTLTYSMEKNHTTPYAGLVFDINDNWSTYASYTSIFQPQNDRDSSGKYLAPITGNNYELGLKSDWMNSRLTTTLAIFRIEQDNVAQSTGTPIPGSNGETAYKAVDGTVSKGVEFELNGAITDNWQLTFGATRYIAEDNEGNAVNPNLPRTTVKMFTSYRLPVMPELTVGGGVNWQNRVYTDTVTPYGTFRAEQGSYALVDLFTRYQVTKNFSLQGNVNNLFDKTYDTNVEGSIVYGTPRNFSITGTYQF							3.33 ± 0.05		> 16			
